Laboratory results as given in the DeepSol protein solubility set.

assay: soluble on expression in E. coli; label from the status in PepcDB or PDB records

| Sequence | soluble on expression in E. coli |
| --- | --- |
| MEFIPPKRMLELIKHYSTTFKNWYSVMLGIYLHRERIKCTLRNGQTLYLTPNEAVLLAGLRIIELDCNTVKFSFNGREITLRGWRLSDPGDSFSDYWRINVKGKRVLDIGAGVGDSSIYFSTMGAKEVVAVEIDKKKIELMRENLRTNGINNVIVVDKGVGTVDNENFISWERLIKDYGPFDDAKIDCDGCERLISPFIKEIPELLIEWDSDYKDVVKNLSKNGYKIRVEHTLKNLGFIYAKRE | soluble |
| KTVTPEEKKLVAEKHVDELVQKALVALEEMRKLDQEQVDYIVAKASVAALDAHGELALHAFEETGRGVFEDKATKNLFACEHVVNNMRHTKTVGVIEEDDVTGLTLIAEPVGVVCGITPTTNPTSTAIFKSLISLKTRNPIVFAFHPSAQESSAHAARIVRDAAIAAGAPENCVQWITQPSMEATSALMNHEGVATILATGGNAMVKAAYSCGKPALGVGAGNVPAYVEKSANIRQAAHDIVMSKSFDNGMVCASE | not soluble |
| MSLLFLAMAPKPKPWVQTEGPEKKKGRQAGREEDPFRSTAEALKAIPAEKRIIRVDPTCPLSSNPGTQVYEDYNCTLNQTNIENNNNKFYIIQLLQDSNRFFTCWNRWGRVGEVGQSKINHFTRLEDAKKDFEKKFREKTKNNWAERDHFVSHPGKYTLIEVQAEDEAQEAVVKVDRGPVRTVTKRVQPCSLDPATQKLITNIFSKEMFKNTMALMDLDVKKMPLGKLSKQQIARGFEALEALEEALKGPTDGGQSLEELSSHFYTVIPHNFGHSQPPPINSPELLQAKKDMLLVLADIELAQALQAVSEQEKTVEEVPHPLDRDYQLLKCQLQLLDSGAPEYKVIQTYLEQTGSNHRCPTLQHIWKVNQEGEEDRFQAHSKLGNRKLLWHGTNMAVVAAILTSGLRIMPHSGGRVGKGIYFASENSKSAGYVIGMKCGAHHVGYMFLGEVALGREHHINTDNPSLKSPPPGFDSVIARGHTEPDPTQDTELELDGQQVVVPQGQPVPCPEFSSSTFSQSEYLIYQESQCRLRYLLEVHL | soluble |
| FNKKEVLDLTSPKNSIRSRNKLRRTLRNIQERIEDELNHEREALIQDFDYRLAVTYDQMLKDSNIPFSVKDVMAFIEKHTGVRFG | soluble |
| MPLAVDLLHPEPQREIRCHKLKRLVQHPNSYFMDVKCSGCFKISTVFSHATTVVVCVGCNTVLCQPTRGKAKLTEGCSFRKKQ | not soluble |
| KGMTPPKTVNFKMKGVADAAFSHEFHLGMYKCNECHTKLFAYKAGAKRFTMADMDKGKSCGACHNGKDAFSSASDCGKCHPG | soluble |
| MGSDKIHHHHHHMDAANVDLKAFTEDFYHRLCGAHLESVKETLVYLKHETDVWVEVTTLLIPGENDSPEEIDAQTKWMMAALGPDVPLHFSAFHPDWKMKDKTNTPPETLTRARDIAIRNGLRYVYTGNVHDPAGGGTYCSGCGALLIGRDWYELSTWALTPEGHCRECGTPLPGRFEAAPGTWGRKRQPVRFQR | not soluble |
| MGHHHHHHSHMSIFTPTNQIRLTNVAVVRMKRAGKRFEIACYKNKVVGWRSGVEKDLDEVLQTHSVFVNVSKGQVAKKEDLISAFGTDDQTEICKQILTKGEVQVSDKERHTQLEQMFRDIATIVADKCVNPETKRPYTVILIERAMKDIHYSVKTNKSTKQQALEVIKQLKEKMKIERAHMRLRFILPVNEGKKLKEKLKPLIKVIESEDYGQQLEIVCLIDPGCFREIDELIKKETKGKGSLEVLNLKDVEEGDEKFE | soluble |
| MAHHHHHHMEQDAASRPVTESEQTTTSYHGHTVSFLLLLYRRLEFESSGSTRPKAMLLRSDDTSPWPSPAPLSPVPSRPSSCRSSFSSLSVTSCISIISLLISSKTAVSRFTSSSWRLRRSSSCCCNSCAVAILLPLRAHGTTQPTGKKKKKKKEREKRKTQDAHHN | not soluble |
| METKYLRINPADNVAVAIVNLPAGEHLSVDGIEITLNEDIPAGHKFALKDFAEGENVIKYGYPIGHARMAKKQGDWMNETNIKTNLAGLLEYTYHPTQVTLDIPHKNLTFKGYRRKNGDVGVRNEIWIIPTVGCVNGIIGQLAEGLRRETEGKGVDAIVAFPHNYGCSQLGDDHENTKKILRDMVLHPNAGAVLIVGLGCENNQPDVFREFLGDYDQDRVKFMVTQKVGDEYEEGMDILRDLYAKASKDERTEVPLSELRVGLKCGGSDGFSGITANPLLGMFSDFLIAQGGTSVLTEVPEMFGAETILMNRCENKDLFEQTVHLINDFKEYFLSHGEPVGENPSPGNKAGGISTLEEKALGCTQKCGKSYVSGVMPYGERLQKKGLNLLSAPGNDLVAATTLAASGCHMVLFTTGRGTPFGTFVPTMKISTNSTLAKNKPGWIDFNAGVIVENEPMEKTCERFIEYVIKVASGEFVNNEKKGYREIAIFKTGVTL | not soluble |
| MNKTYDFKSITENFNLEGELKTSDSHVCGHINDTFIINCEGENGEEIKYVLQRVNSDIFKNPEQLMENIENVTSHIKNKIIEENGDPLRETLNIVKTKEGKNFYKCKEGNYWRIFNFIHDASTYQIVEKPEHLYTAGKALGKFQKQLSDFNVDMLYDTIPDFHNTEKRFEAFMEAVREDKKGRAKDVKEEIDFVINRAEDTKVLVNMIKENKLPLRVTHNDTKFNNIMIDDETGEGIAVIDLDTVMPGLSLYDFGDSIRSGATTALEDEVDLSKVNFDLNLYEHFTKGFLESAGDAFTKEEIEYLPFAAKLMTFECGMRFLMDYLNGDVYFKIHRENHNLDRARNQFKLVSDMEKEMDNMKKIVYSYILEHHHHHH | not soluble |
| MDQTVLDSAFNSPVDSGIAGTTTGSGSTTHFGVGTNFKVSVRSSSRSTDGTDSTDGANSDNVTGSTGSTPAHHSITNLNMALSQHSIDSATAASSTNPFPHFNQADLLNFHQNSLLPHHMFSQFGRYPQFEQKPDVGVLQQQMQMREAKPYKCTQCVKAFANSSYLSQHMRIHLGIKPFGPCNYCGKKFTQLSHLQQHIRTHTGEKPYKCKFTGCDKAFSQLSNLQSHSRCHQTDKPFKCNSCYKCFTDEQSLLDHIPKHKESKHLKIHICPFCGKSYTQQTYLQKHMTKHADRSKASNFGNDVVPADPFDPSLLSWNPMQGMGDNAHDSSSFNISSLTDQFAANTMIGSQSTNYNPAFQNSAFSQLFNIRNNRYLSEYPTSTKNGERAPGFNMITPLENIQRYNGSSSSATAVVTATGSAVVSSTPSSTSSSSAGSSSSQGGVFNPQSLINNMKNHSY | not soluble |
| MGSDKIHHHHHHMMNTTETAPVLNPALEDEYSKALDEIKQFGEAQTHTVHDLGSATWAMRKLGELNKEDAEARKVVQANIDQLNEWLQHSLEARQSRRNYLEHEVLAYVANNRKHDPKYKLDTPYGKVSFTVKRKATPAISDETQVLNFIKSNWNESEQTQVIKRTEKVLVSELKKQVTVAGDKVIDEDGQPIPGMHVDPAGTETPHIKPIQMTEALS | not soluble |
| MSLSEYLGNKEAKQQMLKTIIKDLHQGKDFNQVKADFQNLIKDIDASEIANMEQALIGEGMNPEEITKLCDVHAAVFRDALEENEKPNLILGHPMYTIKHENEEIKKALEELDNYFSSNQMDAFKDRLSFFRDNLDRHYSKKENILFPYLERHNITGPPSVMWSVDDEIRDMGKILLTRVKEGDAGAIKTAYETMKNKISEMIFKEENILTPMLLETLTEEEWAEIKQEDEEFGVVFSKPHGNFWQPKAVTTKNISFEPTGEALSLDTGFLTLEQINTILTNIPIDITFVDKDDTVRYFSQGRERIFVRTKSIIGRKVQNCHPPDSVHMVEKILSDFKHGKHSTAEFWLELAEKFIHIRYFALRDEQGHYVGTMEVSQDVTGIRSLEGERRLLQYEDEGHHHHHH | soluble |
| MLRFVAILQFILLLLLIFSCNADEAKCTIKPYEAKGDKSPGSNGYVIEINGTTTKSMDISKGFVPGEIYKVSIRGWRTQYTVKTFRGFVVSSLFEDNTSAGSWQVVKGHGDARISPGCRQSGVSHANLKSKTSVHMMWKAPEVSSGCVVFRASVIETKYIWFTEAEGLTVKLCIQKGTQILKPVDDPSATCCACDIAQYDLEFTGIWSKNTHPKDYPTLEHLTHFTDMLGSSHSSNYSLWTIGGISTDGMKEIAEWGNTYKAEAEAKAKASEVRSLMKVKGLWFPDVQGTTKSQFVVNKYHHFVSLATMFGPSPDWCVGLSSVNLCLPDCTWAEERTFELQPFDAGTDSGPTYMSPNEPTEPREPIHWITTKLNPLSPFYNSKSDTIPTLAKVILRRKNVTSSECKSDDILKAEAHNITNTSEDEEYKDRRECMMTQWEPWSLCSATCGKGIRIRSRVYVFPIKAQVFHCHRQTTEKQFCNAKINECENSEAFSSKCQVSSWGSWGECSVQCGHGMRSRNRTFLNPATKSGDCSVDLERKDICVGENGDDCNVTPDPLCKTTAWSDWSPCSASCDEGVRVRTRLFFYSEHEKRCMHVNLQEKDTCVMQSCRRFIEINSEEICQEDKQAGQCAGNFPRYWYNHEKTQCERFIFTGCKGNRNQFETEEECKQICLPGYEKSKSLIPNNQLLEDFGNTEVDDGGERVDCEVSKWTAWGSCSVSCGRGKKSRSRHVVKLARNGGHQCSEHLMQELQCRLRPCPVKLTCQVGPWSRWSPCSVSCGEGSQTRRRRVVRARNDDWEEIECDDAETEVRQCTGRHQC | not soluble |
| ILEQDLNDFMSTGAHGLDLYQLVVGGTAPMLNLVEKGKIPPPATTPEKAGMYELGVNFMAKHHMKQLSVNHWAVDNRERSLYNSLAKTYAE | not soluble |
| MAHHHHHHMAAVDMQVRAGELPEEPKKDLKKEPSGASKSEEEMQSGIKTYYEMKIEEYESIINKKLQNKKRLEAQRNELNTRVRELCDEIQYLLEAASYVGEIVKPMGKNKVLVKINPEGKYVVDISHSVNIAQCTPNTRVALYNDSYKLHKILPSKVDPLVSLMKVEKVPDSTYEMVGGLDQQVKEVKEVIELPVKHPEIFESLGISQPKGVLLYGPPGTGKTLLARAVAHHTDCTFIRVSGSELVQKYIGEGSRMVRELFVMAREHAPSIIFMDEIDSIGSQRIEGEHGDSEVQRTMMELLNQLDGFESTQNIKVIMCTNRIDILDEALLRPGRIDRKIEFPNPNVEARMEILKIHSRKMNLMRGIDMMKIATDMNNCSGAEVKAVCTEAGMFALRERRVHVTQEDFEMAVAKVMKQDAEKNFTLRKLWK | soluble |
| MDRLKAMQVFVEVADRGSLSAAAMHLGMSRAMVSRYLAELEAWVGVRLLHRTTRRLSLTPAGSETLPRCRRMLEMVGDMREAVAAPDAEPRGLLRVTAAMSFGGAQLAEAVAEFVRRHPAASIDLLLVDRAVNLVEERVDLAVRITNDLDPNLIGRRLADCRSVVCAAPQYLQQHGAPARAEDLSLHNCLTHSYFGRSLWRFERAGEPVEVPVGGNITANETDVLMRAALAGAGIVMLPTYLAAGQIAAGTLRPLLPDCAPPVLGIHGVYVSRKQMPLILRTMLDFLAERFNPAPWDAALEGR | not soluble |
| MGHHHHHHSHMVRKQSPYEDVQKQSRQHDPYKIIEPTPKKYLEGSAYEVIYNHLSYKHEILDKYIETNTAVFWIKKDDIFSVATILRHLGYECLSEMSAIDLCAKKGHFELFYQFVGFSDSCKNRRRVRVKCVLLPNESVDSLSFLYRSANWSEREAYDMLGIVFDKHPYLKRLIMPHDWVGHPLLRSYPLKGDEFAQWYEVDKIFGKEYREVVGKEQRDSARVDEKDTFNFAKIGYEQGKGEELKEVEEKHAFKKIPFVKDLHKIAPTILKKRL | soluble |
| MHHHHHHSSGVDLGTENLYFQSNAMKIDYLTLFPEMFDGVLNHSIMKRAQENNKLQINTVNFRDYAINKHNQVDDYPYGGGQGMVLKPEPVFNAMEDLDVTEQARVILMCPQGEPFSHQKAVELSKADHIVFICGHYEGYDERIRTHLVTDEISMGDYVLTGGELPAMTMTDAIVRLIPGVLGNEQSHQDDSFSDGLLEFPQYTRPREFKGLTVPDVLLSGNHANIDAWRHEQKLIRTYNKRPDLIEKYPLTNADKQILERYKIGLKKG | soluble |
